The source of these data is PMC6057269 (2018).

B1: GST-tagged ITSN1 SH3d (aa1076-1138), wild type [human] / FCHSD2 SH3-2 (aa568-629), recombinant [human] (parent complex)
chain 1: PEIAQVIASYTATGPEQLTLAPGQLILIRKKNPGGWWEGELQARGKKRQIGWFPANYVKLLSP
chain 2: SVCFVKALYDYEGQTDDELSFPEGAIIRILNKENQDDDGFWEGEFNGRIGVFPSVLVEELSA
B2: GST-tagged FCHSD2 SH3-2 (aa568-629), wild type [human] / ITSN1 SH3d (aa1076-1138), recombinant [human] (parent complex)
chain 1: B1 chain 2
chain 2: B1 chain 1

Variants of B1 are the subject of one assay. Kind of assay: GST pull-down, Coomassie stained gel, band quantification; n = 3 experiments, mean ± SD; parent: 1; read off a plot.
In the case of chain 1 R48E, the ratio to parent is around 0.4. Regarding chain 1 I3S, the ratio to parent is around 0.08. Take chain 1 I3K: the ratio to parent was around 0.08.

On to chain 1 T11A, for which the ratio to parent is around 1.1. Same read-out and setting: the same measure for chain 1 R44A: around 0.08; for chain 1 R44E: around 0.08.

Variants of B2 are the subject of another assay. The description is as above.
Turning to chain 1 Y9S, chain 1 F40S, the ratio to parent was around 0.15. Same read-out and setting: next, chain 1 V55K, chain 1 L56K: around 0.1; chain 1 N46A: around 1.2.

chain 1 Y9S: the ratio to parent was around 0.45.

For the variant chain 1 D17K, the ratio to parent was around 0.9. The same measure, in the same setting: the same measure for chain 1 D16A: around 1.1; for chain 1 F40S: around 0.3; for chain 1 V55S: around 0.8.
